Experimental data reported in PMC7585203.

Target: FAM-LIG1(118–130)K126me2 peptide (human)
Assay: fluorescence polarisation; FAM-labelled peptide with GST-tagged domains or MBP-tagged full-length UHRF1; as described in ref. 4, plotted as change in anisotropy

Question: With “GST-tagged chromodomain Y-like protein isoform 2 (CDYL1b) chromodomain (domain or fragment)” as the substance, how does the ratio of its dissociation constant to that of the UHRF1 TTD read?
Answer: The ratio of its dissociation constant to that of the UHRF1 TTD was 70 fold.
